Each block holds one binder with its values, some of them ahead of it.
Experiments:
[1] = biological target: T1, FLAG-Set1 (full length) (S. cerevisiae, UniProt P38827 1-1080); experiment: SEC
T1 sequence (looked up): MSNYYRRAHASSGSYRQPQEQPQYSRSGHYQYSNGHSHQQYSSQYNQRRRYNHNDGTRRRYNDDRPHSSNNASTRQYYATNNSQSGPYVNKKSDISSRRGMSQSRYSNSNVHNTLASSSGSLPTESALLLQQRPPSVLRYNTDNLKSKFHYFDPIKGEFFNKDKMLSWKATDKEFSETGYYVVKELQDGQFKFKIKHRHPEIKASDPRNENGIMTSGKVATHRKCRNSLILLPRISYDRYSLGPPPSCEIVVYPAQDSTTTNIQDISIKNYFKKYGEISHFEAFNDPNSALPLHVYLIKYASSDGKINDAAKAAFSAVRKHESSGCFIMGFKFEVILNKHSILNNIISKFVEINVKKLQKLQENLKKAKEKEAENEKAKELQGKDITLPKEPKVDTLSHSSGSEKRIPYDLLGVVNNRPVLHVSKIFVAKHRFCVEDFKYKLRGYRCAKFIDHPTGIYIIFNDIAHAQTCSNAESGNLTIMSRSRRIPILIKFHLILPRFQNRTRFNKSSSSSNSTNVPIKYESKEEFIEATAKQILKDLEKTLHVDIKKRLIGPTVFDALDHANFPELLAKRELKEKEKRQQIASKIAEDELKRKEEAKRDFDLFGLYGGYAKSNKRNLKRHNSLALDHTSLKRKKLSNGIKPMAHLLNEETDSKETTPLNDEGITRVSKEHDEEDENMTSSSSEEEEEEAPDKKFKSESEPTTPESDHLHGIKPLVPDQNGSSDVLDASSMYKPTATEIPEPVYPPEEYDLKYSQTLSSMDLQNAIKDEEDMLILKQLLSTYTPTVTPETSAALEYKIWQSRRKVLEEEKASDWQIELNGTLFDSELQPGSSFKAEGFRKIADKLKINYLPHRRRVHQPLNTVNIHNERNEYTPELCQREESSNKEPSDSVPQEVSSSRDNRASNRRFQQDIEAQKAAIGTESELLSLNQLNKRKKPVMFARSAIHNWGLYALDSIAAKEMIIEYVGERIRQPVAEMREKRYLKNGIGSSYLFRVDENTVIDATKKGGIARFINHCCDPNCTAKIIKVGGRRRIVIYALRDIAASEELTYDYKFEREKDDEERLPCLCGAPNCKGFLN

[2] = biological target: T2, FLAG-Spp1 (purified) (S. cerevisiae, UniProt Q03012 1-353); experiment: pull-down
T2 sequence (looked up): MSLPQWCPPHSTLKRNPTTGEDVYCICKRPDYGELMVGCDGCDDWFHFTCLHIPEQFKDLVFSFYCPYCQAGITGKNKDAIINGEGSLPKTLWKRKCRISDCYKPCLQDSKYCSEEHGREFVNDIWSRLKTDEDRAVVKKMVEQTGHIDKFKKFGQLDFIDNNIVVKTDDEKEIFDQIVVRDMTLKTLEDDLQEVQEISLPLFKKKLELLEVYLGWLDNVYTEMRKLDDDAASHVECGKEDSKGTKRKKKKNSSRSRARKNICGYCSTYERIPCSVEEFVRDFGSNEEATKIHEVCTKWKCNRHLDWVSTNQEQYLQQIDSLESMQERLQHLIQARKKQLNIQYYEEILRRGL

[3] = biological target: T1, FLAG-Set1 (full length); experiment: affinity co-purification by the FLAG tag
[4] = biological target: T1, FLAG-Set1 (full length); experiment: affinity co-purification by the FLAG tag; remark: listed apart in the source
[5] = biological target: T3, GST-Set1 fragment, residues 356–568 (S. cerevisiae, UniProt P38827 356-568); experiment: pull-down
T3 sequence (looked up): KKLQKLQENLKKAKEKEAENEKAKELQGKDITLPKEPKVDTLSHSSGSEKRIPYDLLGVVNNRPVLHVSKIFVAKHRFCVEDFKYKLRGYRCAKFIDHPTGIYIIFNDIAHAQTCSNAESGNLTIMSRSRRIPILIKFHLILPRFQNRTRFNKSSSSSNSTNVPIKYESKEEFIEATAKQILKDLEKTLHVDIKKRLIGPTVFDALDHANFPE

[6] = biological target: T4, FLAG-Swd2 (purified) (S. cerevisiae, UniProt P36104 1-329); experiment: pull-down
T4 sequence (looked up): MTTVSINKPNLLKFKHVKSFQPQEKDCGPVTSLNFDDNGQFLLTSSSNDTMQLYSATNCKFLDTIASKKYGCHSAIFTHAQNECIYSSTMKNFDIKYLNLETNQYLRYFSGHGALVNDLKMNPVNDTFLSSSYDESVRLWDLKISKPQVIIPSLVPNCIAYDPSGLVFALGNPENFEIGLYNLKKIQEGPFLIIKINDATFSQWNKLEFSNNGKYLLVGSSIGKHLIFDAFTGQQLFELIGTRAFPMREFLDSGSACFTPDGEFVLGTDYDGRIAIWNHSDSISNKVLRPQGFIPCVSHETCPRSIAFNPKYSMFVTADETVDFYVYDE

binding result [1]: binds
B1: Spp1 (natural protein, S. cerevisiae, UniProt Q03012 1-353, looked up)
chain: T2 sequence (looked up)

binding result [2]: binds
B2: GST-n-SET (Set1 residues 762–937) (domain or fragment, S. cerevisiae, UniProt P38827 762-937, looked up)
chain: MDLQNAIKDEEDMLILKQLLSTYTPTVTPETSAALEYKIWQSRRKVLEEEKASDWQIELNGTLFDSELQPGSSFKAEGFRKIADKLKINYLPHRRRVHQPLNTVNIHNERNEYTPELCQREESSNKEPSDSVPQEVSSSRDNRASNRRFQQDIEAQKAAIGTESELLSLNQLNKRK

binding result [3]: binds
B3: Swd3 (natural protein, S. cerevisiae, UniProt P38123 1-315, looked up)
chain: MFQFVTPVGTQNGLKATCAKISPDGQFLAITQGLNILIYDINRRTVSQTLVTSHARPFSELCWSPDGQCIATASDDFSVEIIHLSYGLLHTFIGHTAPVISLTFNRKGNLLFTSSMDESIKIWDTLNGSLMKTISAHSEAVVSVDVPMNDSSILSSGSYDGLIRIFDAETGHCLKTLTYDKDWKRENGVVPISQVKFSENARYLLVKSLDGVVKIWDCIGGCVVRTFQVQPLEKGVLHHSCGMDFLNPEDGSTPLVISGYENGDIYCWNSDTKSLLQLLDGSLYHHSSPVMSIHCFGNIMCSLALNGDCCLWRWV

binding result [4]: binds
B4: Swd1 (natural protein, S. cerevisiae, UniProt P39706 1-426, looked up)
chain: MNILLQDPFAVLKEHPEKLTHTIENPLRTECLQFSPCGDYLALGCANGALVIYDMDTFRPICVPGNMLGAHVRPITSIAWSPDGRLLLTSSRDWSIKLWDLSKPSKPLKEIRFDSPIWGCQWLDAKRRLCVATIFEESDAYVIDFSNDPVASLLSKSDEKQLSSTPDHGYVLVCTVHTKHPNIIIVGTSKGWLDFYKFHSLYQTECIHSLKITSSNIKHLIVSQNGERLAINCSDRTIRQYEISIDDENSAVELTLEHKYQDVINKLQWNCILFSNNTAEYLVASTHGSSAHELYIWETTSGTLVRVLEGAEEELIDINWDFYSMSIVSNGFESGNVYVWSVVIPPKWSALAPDFEEVEENVDYLEKEDEFDEVDEAEQQQGLEQEEEIAIDLRTREQYDVRGNNLLVERFTIPTDYTRIIKMQSS

binding result [1]: binds
B5: Shg1 (natural protein, S. cerevisiae, UniProt P38337 1-142, looked up)
chain: MAYNQEDSKRLSDKYKKEGHFDKLKREILSNPWNNTEENSESFEQALRKRVASTVKEMVNEDEELIFKNRGLTSALIESQLVKDNYLKLGSKMEGDNGDGEKKFDLDVYVRSKLQDPKLLEMIKGQLQETLNSYEEEANGST

binding result [5]: binds
B6: FLAG-Shg1 (purified) (natural protein, S. cerevisiae, UniProt P38337 1-142, looked up)
chain: B5 chain

binding result [6]: binds
B7: GST-Set1 fragment, residues 1–229 (domain or fragment, S. cerevisiae, UniProt P38827 1-229, looked up)
chain: MSNYYRRAHASSGSYRQPQEQPQYSRSGHYQYSNGHSHQQYSSQYNQRRRYNHNDGTRRRYNDDRPHSSNNASTRQYYATNNSQSGPYVNKKSDISSRRGMSQSRYSNSNVHNTLASSSGSLPTESALLLQQRPPSVLRYNTDNLKSKFHYFDPIKGEFFNKDKMLSWKATDKEFSETGYYVVKELQDGQFKFKIKHRHPEIKASDPRNENGIMTSGKVATHRKCRNSL

binding result [1]: binds
B8: Swd2 (natural protein, S. cerevisiae, UniProt P36104 1-329, looked up)
chain: T4 sequence (looked up)
